{"source": "paper PMC3277881", "about": "(Molecular Cell, 2011)", "binders": {"B1": {"name": "Atg7 C-terminal domain (Atg7^CTD), yeast (domain or fragment, yeast (budding yeast))", "chain": "SSLLDPLKIADQSVDLNLKLMKWRILPDLNLDIIKNTKVLLLGAGTLGCYVSRALIAWGVRKITFVDNGTVSYSNPVRQALYNFEDCGKPKAELAAASLKRIFPLMDATGVKLSIPMIGHKLVNEEAQHKDFDRLRALIKEHDIIFLLVDSRESRWLPSLLSNIENKTVINAALGFDSYLVMRHGNRDEQSSKQLGCYFCHDVVAPTDSLTDRTLDQMCTVTRPGVAMMASSLAVELMTSLLQTKYSGSETTVLGDIPHQIRGFLHNFSILKLETPAYEHCPACSPKVIEAFTDLGWEFVKKALEHPLYLEEISGLSVIKQEVERLGNDVFEWEDDESDEIA"}, "B2": {"name": "full-length yeast Atg7 (enzyme, yeast (budding yeast), UniProt P38862 1-630, looked up)", "chain": "MSSERVLSYAPAFKSFLDTSFFQELSRLKLDVLKLDSTCQPLTVNLDLHNIPKSADQVPLFLTNRSFEKHNNKRTNEVPLQGSIFNFNVLDEFKNLDKQLFLHQRALECWEDGIKDINKCVSFVIISFADLKKYRFYYWLGVPCFQRPSSTVLHVRPEPSLKGLFSKCQKWFDVNYSKWVCILDADDEIVNYDKCIIRKTKVLAIRDTSTMENVPSALTKNFLSVLQYDVPDLIDFKLLIIRQNEGSFALNATFASIDPQSSSSNPDMKVSGWERNVQGKLAPRVVDLSSLLDPLKIADQSVDLNLKLMKWRILPDLNLDIIKNTKVLLLGAGTLGCYVSRALIAWGVRKITFVDNGTVSYSNPVRQALYNFEDCGKPKAELAAASLKRIFPLMDATGVKLSIPMIGHKLVNEEAQHKDFDRLRALIKEHDIIFLLVDSRESRWLPSLLSNIENKTVINAALGFDSYLVMRHGNRDEQSSKQLGCYFCHDVVAPTDSLTDRTLDQMCTVTRPGVAMMASSLAVELMTSLLQTKYSGSETTVLGDIPHQIRGFLHNFSILKLETPAYEHCPACSPKVIEAFTDLGWEFVKKALEHPLYLEEISGLSVIKQEVERLGNDVFEWEDDESDEIA"}, "B3": {"name": "Atg7 N-terminal domain (Atg7^NTD), yeast (domain or fragment, yeast (budding yeast), UniProt P38862 1-289, looked up)", "chain": "MSSERVLSYAPAFKSFLDTSFFQELSRLKLDVLKLDSTCQPLTVNLDLHNIPKSADQVPLFLTNRSFEKHNNKRTNEVPLQGSIFNFNVLDEFKNLDKQLFLHQRALECWEDGIKDINKCVSFVIISFADLKKYRFYYWLGVPCFQRPSSTVLHVRPEPSLKGLFSKCQKWFDVNYSKWVCILDADDEIVNYDKCIIRKTKVLAIRDTSTMENVPSALTKNFLSVLQYDVPDLIDFKLLIIRQNEGSFALNATFASIDPQSSSSNPDMKVSGWERNVQGKLAPRVVDLS"}, "B4": {"name": "Atg3^ΔFR (yeast Atg3 with the FR region, residues 86-159, deleted) (enzyme, yeast (budding yeast))", "chain": "MIRSTLSSWREYLTPITHKSTFLTTGQITPEEFVQAGDYLCHMFPTWKWNEESSDISYRDFLPKNKQFLIIRKVPCDKRAEQCVEAKDMAQERYYDLYIAYSTSYRVPKMYIVGFNSNGSPLSPEQMFEDISADYRTKTATIEKLPFYKNSVLSVSIHPCKHANVMKILLDKVRVVRQRRRKELQEEQELDGVGDWEDLQDDIDDSLRVDQYLIVFLKFITSVTPSIQHDYTMEGW"}}, "key": {"AUC": {"biological_target": "the molecule itself", "assay": "AUC"}, "Atg3 (yeast)": {"biological_target": "T1, Atg3 (yeast) (yeast (budding yeast), UniProt P40344 1-310)", "T1 sequence": "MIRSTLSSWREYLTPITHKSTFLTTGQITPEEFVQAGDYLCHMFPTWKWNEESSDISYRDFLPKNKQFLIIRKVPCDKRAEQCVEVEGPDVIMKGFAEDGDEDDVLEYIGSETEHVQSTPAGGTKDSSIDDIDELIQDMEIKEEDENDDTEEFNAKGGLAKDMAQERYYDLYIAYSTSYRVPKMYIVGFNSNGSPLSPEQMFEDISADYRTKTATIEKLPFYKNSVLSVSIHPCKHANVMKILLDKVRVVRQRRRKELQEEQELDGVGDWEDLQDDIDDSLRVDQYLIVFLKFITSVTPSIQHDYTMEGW", "assay": "ITC"}, "full-length yeast Atg7": {"biological_target": "B2", "assay": "ITC"}}, "data": [{"binder": "B1", "values": [{"measurement": "stoichiometry N", "setting": "AUC", "result": 2}]}, {"binder": "B2", "values": [{"measurement": "stoichiometry N", "setting": "AUC", "result": 2}]}, {"binder": "B3", "values": [{"measurement": "Kd", "setting": "Atg3 (yeast)", "result": 1.85, "unit": "µM"}]}, {"binder": "B4", "values": [{"measurement": "fold change of Kd against Atg3", "setting": "full-length yeast Atg7", "result": "> 40", "unit": "fold"}]}, {"binder": "SIDDIDELIQDMEIKEE (peptide, UniProt P40344 128-144, looked up)", "note": "[synthetic peptide encompassing Atg3 residues 128-144 (Atg3^FRpep)]", "values": [{"measurement": "Kd", "setting": "full-length yeast Atg7", "result": 5.9, "unit": "µM"}]}]}
